According to the supplement of paper PMC9170038:

Columns and labels:
MS2 coat protein [1] = assay: apparent KD of MS2 coat protein, switch OFF state (with FMN for OFF switches, without FMN for ON switches); designed switch direction (-1 OFF switch, 1 ON switch): -1; higher = weaker reporter binding; details: FMN input: 0 or 200 uM; Eterna round: R93 (includes R88 designs)
Procedure, shortened: (§1)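 Each design's apparent KD comes from the median of binding-curve fits to its normalised clusters. Those clusters carried RNA switches transcribed on-chip from Illumina sequencing clusters. SNAP-549-labelled MS2 coat protein was titrated onto them in twofold steps (0.7 or 1.5 nM to 3 µM; per step 0.8–1.5 h down to 10–20 min). Conditions were 100 mM Tris-HCl pH 7.5, 80 mM KCl, 4 mM MgCl2, without or with constant ligand.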

MS2 coat protein [2] = assay: apparent KD of MS2 coat protein, switch ON state; designed switch direction (-1 OFF switch, 1 ON switch): -1; higher = weaker reporter binding; details: FMN input: 0 or 200 uM; Eterna round: R93 (includes R88 designs)
Procedure, shortened: as §1

Sequence | apparent KD of MS2 coat protein (MS2 coat protein [1]) | apparent KD of MS2 coat protein (MS2 coat protein [2])
AACAUGUCAGGAUAUGCAACAGGAGACUGACACGCGAGUGAGCAGAAGGGACAUGAGGAUCACCCAUGUUCAAA [Meechl Ex4 3] | 17.1 nM | 21.1 nM
AGGUGGUCAGGAUAUGCGUGAAGAAUAAAACAAAUAACAACGCAGAAGGGACAUGAGGAUCACCCAUGUCACCA [May 52] | 16.6 nM | 20.7 nM
AAAAAACAUGAGGAUCACCCAUGUGAGGAUAUGCAAUAAAAAAUAAAAAUAAAACAUAGCAGAAGGCACACCAA [Amethyst 58] | 31.8 nM | 26.6 nM
AUAAAACAUGAGGAUCACCCAUGUGAGGAUAUCUAAAAAGAAAGAAAAAAAAAAAAAAAGAGAAGGCACAAUAA [Amethyst 45] | 31.8 nM | 27.7 nM
GAAAAGUGAGGAUAUACUUUGGGAAAAGAAAAGAUGAUGUUACAUGAGGAUCACCCAUGUAGAAGGCACAAAAA [Mat - Exclusion 2 - Mod - D155] | 38.1 nM | 25.2 nM
AAAAAUGCAGGAUAUACGAACAUGUCAAAAGACGUGAAGGGACAUGAGGAUCACCCAUGUAGAAGGGUAAAGAA [JL Neck Breaker 14] | 46 nM | 248 nM
CAGUACUGAGGAUAUACAUGAGGAUCACCCAUGUAAAAAAGCUACGAAAGUAGCAAAUGUAGAAGGCAGUACUG [Ex3: 804] | 22.8 nM | 15.5 nM
GCUGGCCUAGGAUAUACAUGAGGAUCACCCAUGUGAGAGAAAAAAGUGAGAAAGAAAAGUAGAAGGAGGUUAGG [salish99-ex3-115] | 57.2 nM | 50.2 nM
AACAGUACAGGAUAUACAUGAGGAUCACCCAUGUGAAAAUUAAGUGGAGAACCACAAAGUAGAAGGGUACUGAA [Mat - Exclusion 3 - Eli mod - D57] | 179 nM | 27.6 nM
AAAAAGUUAGGAUAUACAGAUAAAAAAACGAAAAAAAAUCUGUAGAAGGAACAUGAGGAUCACCCAUGUAAAAA [Ex 4 May 2] | 16.7 nM | 25.6 nM
AAAAGGCGAGGAUAUACAUGAGGAUCACCCAUGUAAGUAAGCCUGGCUGAAACUAAAUGUAGAAGGCGCAAAAA [Mat - Exclusion 3 - Neo mod - D73] | 56.2 nM | 18.2 nM
GAAAACCUAGGAUAUACAUGAGGAUCACCCAUGUCAGUAGACUGGGUAAGGUCUCUCAGUAGAAGGAGGACCCA [Ratilein] | 318 nM | 315 nM
AAAUAGUUAGGAUAUACAUGAGGAUCACCCAUGUGCACGUAUGGAGAAUAUGGUGGUGGUAGAAGGGACUAAAA [EX2 Malc#20] | 94.7 nM | 55.5 nM
AAAUAGUUAGGAUAUACAUGAGGAUCACCCAUGUGGACUUAUGGCGAAUAAUUUAGUGGUAGAAGGGACUAAAA [EX2 Malc#28] | 53.8 nM | 62.9 nM
AUACGCUGAGGAUAUACCGAAACAACAUCCUCGUGUAUAAUACAUGAGGAUCACCCAUGUAGAAGGCAGUAAAA [Usmaan] | 85.5 nM | 46.2 nM
AGUAGAUCAGGAUAUACAUGAAAGAUCAAAAUGUCCAAUAUACAUGAGGAUCACCCAUGUAGAAGGGAUCUACA [Ex2 Design 115: Not so Super Stable 2] | 50.5 nM | 99.9 nM
UCUUGACAUGAGGAUCACCCAUGUCAGGAUAUAGUAGGACAAAUAAAUAAAAGUAAUACUAGAAGGGAUAUGGG [Amethyst 52] | 32.6 nM | 29.8 nM
CUCUUGUCAGGAUAUGUAAGAAAAGAAGAGAAAGAAAAGAAACAGAAGGGACAUGAGGAUCACCCAUGUAAGAA [EteRNA is fun!] | 77 nM | 66.4 nM
UUUCACCUAGGAUAUACAUGAGGAUCACCCAUGUGAGGCGAAGGACGGAGGGAUGGUAGUAGAAGGAGGACAAG [Mod of Gedier] | 21.6 nM | 19.5 nM
AAAGGACAAGGAUAUACAUGAGGAUCACCCAUGUGUAAAACAUAAUAAAAUAACUUAUGUAGAAGGUGUCCAAA [Mat - Exclusion 3 - Eli mod - D100] | 173 nM | 30.5 nM
AAGAAACAUGAGGAUCACCCAUGUGAGGAUAUCCAAAAGAAAAGAAAAGAAAGAAGAAGGAGAAGGCACAAAGG [Nikare] | 159 nM | 88.5 nM
GAAAAACAUGAGGAUCACCCAUGUAAGGAUAUGCUAAAAAACACGGAAAAACGUGAUAGCAGAAGGUACAAAAA [Mat - Exclusion 1 - Eli mod - D89] | 36.5 nM | 24.1 nM
AACAUGUCAGGAUAUGUGUAAAGAAUAAAAGAAAUAACAACACAGAAGGGACAUGAGGAUCACCCAUGUCAACA [May 32] | 29.3 nM | 26.1 nM

Sequence | apparent KD of MS2 coat protein (MS2 coat protein [1]) | apparent KD of MS2 coat protein (MS2 coat protein [2])
AAAAAACAUGAGGAUCACCCAUGUAAGGAUAUGCUAAAAAACGCAAAAAAAGCGAAUAGCAGAAGGUACAAAAA [66%, Wbt, 29] | 35.9 nM | 19.4 nM
AGUUGGCGAGGAUAUACAUGAGGAUCACCCAUGUGAAAGAAAAAAGUGAGAAAGAAAAGUAGAAGGCGCUGACA [73%, Moding Norbert Elias, 2] | 181 nM | 54.7 nM
AAAGGACAUGAGGAUCACCCAUGUGAGGAUAUGACGUAAAGAAAGAAAGAAGAAAUCGUCAGAAGGCACACCUA [Mat - Exclusion 1 - Eli mod - D69] | 36.5 nM | 35.4 nM
AAGGGACAUGAGGAUCACCCAUGUAAGGAUAUGCUAUGGAAAAUAAAAAUAAAACAUAGCAGAAGGUACAAAAA [Denovo 15] | 135 nM | 124 nM
AAAACACAUGAGGAUCACCCAUGUGAGGAUAUGCUAUGGAAAAUAAAAAUAAAACAUAGCAGAAGGCACAAGGA [Denovo 17] | 50 nM | 28 nM
AAAAAGAGAGGAUAUACAUGAGGAUCACCCAUGUGACACAAAAUAAAUAAAAUAAAGUGUAGAAGGCUCAAAAA [65%, Moding Exclusion3-cac2, 20] | 78.2 nM | 23.8 nM
ACAGUUACAGGAUAUACAUGGAAAAAUAAAAAUAAAAAACUACAUGAGGAUCACCCAUGUAGAAGGGUAACUGA [Ex2 Design 197: Random 12F] | 86.9 nM | 42.9 nM
AAAAAACAUGAGGAUCACCCAUGUAAGGAUAUGCAAAAAAAAAAAAUAAAAAAAAAAAGCAGAAGGUACAUAGA [Starry Exclusion 1.7 (wbt round 1 mod)] | 40.6 nM | 36.6 nM
AAGGAGUGAGGAUAUACAUGAGGAUCACCCAUGUUGAUGGAAACGUCAGAGAAAGAAGGUAGAAGGCACAAGAA [JR_Exclusion3_Sub6] | 54.1 nM | 51.2 nM
ACCUAGUCAGGAUAUACAAACAUGUCAAAAGACGUGAAAAAACAUGAGGAUCACCCAUGUAGAAGGGACUAGGA [Mat - Exclusion 2 - JL mod - D22] | 19.7 nM | 20.5 nM
AGUAGUACAGGAUAUACAUGAGGAUCACCCAUGUGAAAAUUAAGUGGCGUACCACAAAGUAGAAGGGUACUACA [Mat - Exclusion 3 - JL mod - D36] | 148 nM | 31 nM
AACAAGUGAGGAUAUCUGGAUAGGAAAAAGAAAACCUAUCCAGAGAAGGCACAUGAGGAUCACCCAUGUAAAAA [JL cataway mod 6] | 34.6 nM | 32.7 nM
AAAAAUGGAGGAUAUACAUGAGGAUCACCCAUGUGUAACUAUACUAAGCACAAACCAAGUAGAAGGCCAAAAAA [Gilly Gone Silly 10 - Jieux - Exclusion 3] | 95.3 nM | 45.4 nM
AGUUGGCGAGGAUAUACAUGAGGAUCACCCAUGUGAAAUCGAGAAAAAAUAGGGAAAAGUAGAAGGCGCUGACA [Ruby 62] | 90.6 nM | 22.5 nM
AAAACACAUGAGGAUCACCCAUGUCAGGAUAUACGAGAAAGAAAAGAAAAGAAAAGAAGUAGAAGGGACUAGAA [Exclusion1 Malc#3] | 22.4 nM | 15.7 nM
AAAAUGUCAGGAUAUGCGAAGGCGUCUGACGGACGAGGAUUGCAGAAGGGACAUGAGGAUCACCCAUGUAAAAA [Mod Hyphema's Change in Energy -added G at 31] | 133 nM | 79.5 nM
AAGCUGGUAGGAUAUACUAGGGCGACUAAUGCGCCGAUAGGACAUGAGGAUCACCCAUGUAGAAGGGCCAGAAA [JR_Exc002_Sub406] | 70 nM | 187 nM
UGCAGGUGAGGAUAUGCGGGCGAUUAAACAUAUAAAUGCAAGCAGAAGGCACAUGAGGAUCACCCAUGUAGUCC [Ex4Try2_Neo] | 29.6 nM | 30.8 nM
AAUCCACAUGAGGAUCACCCAUGUGAGGAUAUCGUGCAGAAAAAAAAAAAAAACUGCACGAGAAGGCACAUGGA | 20.2 nM | 35.1 nM
AGAAAGUCAGGAUAUGCAGAAAAAAAAACGAAAAAAAAACUGCAGAAGGGACAUGAGGAUCACCCAUGUUAAAG [Mat - Exclusion 4 - Mayanna - D129] | 34.9 nM | 46.6 nM
AAAUUGUCAGGAUAUCGUAGAACUCUAAAAUAGAGGAGCUACGAGAAGGGACAUGAGGAUCACCCAUGUAAAAC [May 88] | 68.4 nM | 56.2 nM
AGAUAGUCAGGAUAUACGAACAAGAAAAAAGACGAGAACGGACAUGAGGAUCACCCAUGUAGAAGGGACUAGCA [Diamond 10] | 30.2 nM | 35.6 nM
